Results taken from patent publication US20260193323.

Experiments:
[1] = biological target: T1, LEKTI domains 10-15
T1 chain: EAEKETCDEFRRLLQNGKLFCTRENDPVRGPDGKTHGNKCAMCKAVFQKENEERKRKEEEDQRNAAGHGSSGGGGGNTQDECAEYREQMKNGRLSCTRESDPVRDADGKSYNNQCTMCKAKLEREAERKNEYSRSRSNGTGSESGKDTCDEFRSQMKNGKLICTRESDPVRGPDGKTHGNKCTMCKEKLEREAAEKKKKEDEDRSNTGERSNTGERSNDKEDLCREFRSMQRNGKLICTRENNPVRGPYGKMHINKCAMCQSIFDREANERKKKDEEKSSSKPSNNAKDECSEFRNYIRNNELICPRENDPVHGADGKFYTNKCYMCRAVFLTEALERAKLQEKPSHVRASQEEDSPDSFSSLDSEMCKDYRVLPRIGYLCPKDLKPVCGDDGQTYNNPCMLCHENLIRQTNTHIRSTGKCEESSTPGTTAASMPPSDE

[2] = biological target: T2, recombinantly produced LEKTI Domain 6
T2 chain: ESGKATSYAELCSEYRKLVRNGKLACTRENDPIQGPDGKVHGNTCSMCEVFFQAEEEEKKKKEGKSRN

B1: KLK7 (protein)
chain: IIDGAPCARGSHPWQVALLSGNQLHCGGVLVNERWVLTAAHCKMNEYTVHLGSDTLGDRRAQRIKASKSFRHPGYSTQTHVNDLMLVKLNSQARLSSMVKKVRLPSRCEPPGTTCTVSGWGTTTSPDVTFPSDLMCVDVKLISPQDCTKVYKDLLENSMLCAGIPDSKKNACNGDSGGPLVCRGTLQGLVSWGTFPCGQPNDPGVYTQVCKFTKWINDTMKKHR
KLK7 activity (Suc-Arg-Pro-Tyr-p-Nitro-Anilide substrate, 405 nm) [1]: recombinantly produced LEKTI Domain 6 inhibits KLK7 in vitro about as well as LEKTI domains 10-15 | KLK7 activity (Suc-Arg-Pro-Tyr-p-Nitro-Anilide substrate, 405 nm) [2]: recombinantly produced LEKTI Domain 6 inhibits KLK7 in vitro about as well as LEKTI domains 10-15
